Source: US20030026803A1 (published 2003)

Experiments:
[1] = target: T1, soluble rat CD4 (rat, UniProt P05540 28-394, limits assumed); assay: BIAcore, 25° C; soluble rat CD4 injected over V-SIRP-CD4d3+4 flowcell and control flowcell
T1 sequence (looked up): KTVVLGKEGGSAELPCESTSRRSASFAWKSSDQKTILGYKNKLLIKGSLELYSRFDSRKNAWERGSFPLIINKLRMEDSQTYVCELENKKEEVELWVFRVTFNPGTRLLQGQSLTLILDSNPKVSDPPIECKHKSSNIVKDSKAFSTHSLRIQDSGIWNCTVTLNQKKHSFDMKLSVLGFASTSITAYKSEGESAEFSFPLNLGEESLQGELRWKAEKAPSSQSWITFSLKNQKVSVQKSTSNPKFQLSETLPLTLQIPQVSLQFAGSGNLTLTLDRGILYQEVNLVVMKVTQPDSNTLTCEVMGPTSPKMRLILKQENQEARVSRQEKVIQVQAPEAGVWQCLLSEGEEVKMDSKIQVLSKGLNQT
Description: FIG. 6. The NH2-terminal V domain of SIRP binds CD47. Soluble rat CD4 and hCD47-CD4d3+4 were injected into flowcells with immobilised V-SIRP-Cd4d3+4 (solid line) or control rat CD4 (dashed line).
(§1) BIAcore analysis was carried out using a BIAcore™ 2000 biosensor instrument (Biacore AB) as previously described (Brown et al., (1998) J. Exp. Med. 188:2083-90, van der Merwe, et al., (1994) Biochemistry 33:101489-60) using CM5 research grade chips. […] For equilibrium binding increasing and decreasing concentrations of monomeric hCD47-CD4d3+4 were passed over hSIRP-Fc (6500 RU). For kinetic measurements hCD47-CD4d3+4 (18.30 μM) was passed over hSIRP-Fc immobilised at 6500 RU and 3000 RU and a control, CTLA4-Fc (6300 RU). CD47mAb blocking and V-SIRP-CD4d3+4 binding experiments were carried out at 10 and 5 μl/min respectively at 25° C.
To localise the CD47 binding site on SIRP a construct containing only the NH₂-terminal V-like domain of hSIRP in frame with CD4d3+4 was made. V-SIRP-CD4d3+4 was immobilised in one flowcell via a CD4 mAb (OX68). The free OX68 in this flowcell and all the OX68 in the control flowcell was blocked with soluble rat CD4. Blocking was verified by repeating the injection of soluble rat CD4 (FIG. 6). Soluble hCD47-CD4d3+4 was then injected over both the flowcells. […]

[2] = target: T2, hSIRP-Fc (extracellular region of human SIRPα fused to the Fc region of human IgG) (human, UniProt P78324 31-373); assay: BIAcore, 37° C; lower bound because of rebinding
T2 construct: extracellular domain; also called human SIRP-Fc; dimeric hSIRP-Fc; not shown: human IgG Fc from vector pIg PLUS (R&D Systems)
Description: (§2) (C) Soluble hCD47 (18.3 μM) was injected over immobilised hSIRP-Fc immobilised at high (6500 RU) (filled circles) and low (3000) levels (filled up triangles), and hCTLA-4-Fc (6290 RU) (filled down triangles). Values for koff=1.6 s⁻¹ for hSIRP-Fc high, 2.1 s⁻¹ hSIRP-Fc low and 7.0 s⁻¹ for hCTLA-4-Fc were calculated by exponential decay curve fitting (line) to dissociation data (symbols).
as §1
(§3) To measure the affinity of the interaction hSIRP-Fc was directly immobilised and monomeric hCD47-CD4d3+4 passed over it. As shown in FIG. 5A hCD47-CD4d3+4 bound specifically to hSIRP-Fc in a dose dependent manner. […] The apparent rate constants were calculated as koff=1.3 s⁻¹ for the higher level of hSIRP-Fc and koff=2.1 s⁻¹ for the lower level (FIG. 5C). […]

[3] = target: T2, hSIRP-Fc (extracellular region of human …); assay: BIAcore equilibrium binding at 37° C, Scatchard analysis
Description: as §2, §1, §3

[4] = target: T2, hSIRP-Fc (extracellular region of human …); assay: BIAcore, 37° C; apparent rate constant, hSIRP-Fc at the higher level
Description: as §2, §1, §3

[5] = target: T2, hSIRP-Fc (extracellular region of human …); assay: BIAcore, 37° C; 18.3 µM hCD47-CD4d3+4 over hSIRP-Fc at 3000 RU, exponential decay fitting
Description: (§4) FIG. 5. Affinity and dissociation rate of soluble human CD47-CD4d3+4 binding to human SIRP-Fc. (A) Soluble monomeric hCD47-CD4d3+4 was injected at the indicated concentrations in 1 μM through flowcells immobilised hSIRP-Fc (6525 RU) (solid line), or as a negative control CTLA-4-Fc (6290 RU) (dotted line) at 37° C. (B) the difference between the response between the response at equilibrium in the hSIRP-Fc flowcell and the control flow cell is plotted against the hCD47-CD4d3+4 concentration. A kd=8.5 μM and maximal binding of 1400 RU were calculated by non linear curve fitting of the Langmuir isotherm (line) to data (circles) from A with negative control subtracted. […] (C) Soluble hCD47 (18.3 μM) was injected over immobilised hSIRP-Fc immobilised at high (6500 RU) (filled circles) and low (3000) levels (filled up triangles), and hCTLA-4-Fc (6290 RU) (filled down triangles). Values for koff=1.6 s⁻¹ for hSIRP-Fc high, 2.1 s⁻¹ hSIRP-Fc low and 7.0 s⁻¹ for hCTLA-4-Fc were calculated by exponential decay curve fitting (line) to dissociation data (symbols).
(§5) BIAcore analysis was carried out using a BIAcore™ 2000 biosensor instrument (Biacore AB) as previously described (Brown et al., (1998) J. Exp. Med. 188:2083-90, van der Merwe, et al., (1994) Biochemistry 33:101489-60) using CM5 research grade chips. […]

[6] = target: T2, hSIRP-Fc (extracellular region of human …); assay: BIAcore, 37° C; 18.3 µM hCD47-CD4d3+4 over hSIRP-Fc at 6500 RU, exponential decay fitting
Description: as §4, §5

[7] = target: T2, hSIRP-Fc (extracellular region of human …); assay: BIAcore equilibrium binding at 37° C, non linear curve fitting of the Langmuir isotherm; hSIRP-Fc immobilised (6525 RU), control subtracted
Description: as §4, §5

B1: V-SIRP-CD4d3+4 (NH2-terminal V-like domain of hSIRP in frame with rat CD4 domains 3+4) (receptor, human;rat, UniProt P78324 31-148, looked up)
chain: EEELQVIQPDKSVLVAAGETATLRCTATSLIPVGPIQWFRGAGPGRELIYNQKEGHFPRVTTVSDLTKRNNMDFSIRIGNITPADAGTYYCVKFRKGSPDDVEFKSGAGTELSVRAKPSTSITAYKSEGESAEFSFPLNLGEESLQGELRWKAEKAPSSQSWITFSLKNQKVSVQKSTSNPKFQLSETLPLTLQIPQVSLQFAGSGNLTLTLDRGILYQEVNLVVMKVTQPDSNTLTCEVMGPTSPKMRLILKQENQEARVSRQEKVIQVQAPEAGVWQCLLSEGEEVKMDSKIQVLSKGLN
notes: domain: NH2-terminal V-like domain;domain: CD4 domains 3+4; Captured on the chip via OX68; also called single SIRP V domain CD4d3+4 fusion protein
binding result [1]: no binding

B2: hCD47-CD4d3+4 (single extracellular IgSF domain of human CD47 fused to rat CD4 domains 3+4) (ligand, human;rat, UniProt Q08722 19-136, looked up)
chain: QLLFNKTKSVEFTFCNDTVVIPCFVTNMEAQNTTEVYVKWKFKGRDIYTFDGALNKSTVPTDFSSAKIEVSQLLKGDASLKMDKSDAVSHTGNYTCEVTELTREGETIIELKYRVVSWSTSITAYKSEGESAEFSFPLNLGEESLQGELRWKAEKAPSSQSWITFSLKNQKVSVQKSTSNPKFQLSETLPLTLQIPQVSLQFAGSGNLTLTLDRGILYQEVNLVVMKVTQPDSNTLTCEVMGPTSPKMRLILKQENQEARVSRQEKVIQVQAPEAGVWQCLLSEGEEVKMDSKIQVLSKGLN
notes: extracellular domain;domain: CD4 domains 3+4; Used as a monomer in solution, or captured via OX68; also called soluble human CD47-CD4d3+4; soluble hCD47; not shown: biotinylation peptide of the CD4d3+4-biotin vector
koff [2]: ≥ 2.1 s⁻¹ | Kd [3]: 7.6 µM | koff [4]: 1.3 s⁻¹ | koff [5]: 2.1 s⁻¹ | koff [6]: 1.6 s⁻¹ | Kd [7]: 8.5 µM
